Test results taken from patent US20200247855A1, “THERAPY AND DIAGNOSTICS” (OXFORD UNIVERSITY INNOVATION LIMITED, priority 2017, published 2020).

T1: CCL25_HUMAN (Homo sapiens, UniProt O15444)
T1 sequence (O15444 24-150): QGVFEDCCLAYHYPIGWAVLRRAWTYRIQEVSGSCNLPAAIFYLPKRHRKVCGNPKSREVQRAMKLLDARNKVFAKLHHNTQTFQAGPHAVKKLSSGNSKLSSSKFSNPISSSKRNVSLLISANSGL

T2: CCL22_HUMAN (Homo sapiens, UniProt O00626)
T2 sequence (O00626 25-93): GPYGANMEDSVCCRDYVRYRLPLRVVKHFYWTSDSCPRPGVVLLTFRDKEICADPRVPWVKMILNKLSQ

T3: CCL4L1_HUMAN (Homo sapiens, UniProt Q8NHW4)
T3 sequence (Q8NHW4 24-92): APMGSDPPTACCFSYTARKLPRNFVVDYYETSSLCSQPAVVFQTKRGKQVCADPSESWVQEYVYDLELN

B1: EVASIN4: previously described tick CKBP evasin 4, from Rhipicephalus sanguineus (protein, listed as Rhipicephalus sanguineus)
chain: EVPQMTSSSAPDLEEEDDYTAYAPLTCYFTNSTLGLLAPPNCSVLCNSTTTWFNETSPNNASCLLTVDFLTQDAILQENQPYNCSVGHCDNGTCAGPPRHAQCW
B2: P1243_AMBAM: tick CKBP, Amblyomma americanum; AAM-02 stated identical (protein, listed as Amblyomma americanum)
chain: RNHTEDNSTEYYDYEEARCACPARHLNNTNGTVLKLLGCHYFCNGTLCTAPDGYPCYNLTAQQVRTLTTYPNTSCAVGVCMKGTCVKNGTMEQCFKTP

Legend:
[1] = molecular target: T1, CCL25_HUMAN; details: read-out: Kd, CCL25_HUMAN, previously described evasins; data obtained from publications [20-22,32]; cited from earlier work
[2] = molecular target: T2, CCL22_HUMAN; assay: Biolayer interferometry (BLI) binding
Procedure, shortened: (§1)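 Binding was measured by biolayer interferometry with the His-tagged tick protein bound to Ni-NTA sensors. A single-concentration screen used chemokine at 300 nM. Chemokines that bound were retested over multiple doses, and Kd was calculated from fitted curves.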

[3] = molecular target: CCL11_HUMAN (Homo sapiens, UniProt P51671); assay: Biolayer interferometry (BLI) binding
Procedure, shortened: as §1

[4] = molecular target: T3, CCL4L1_HUMAN; assay: Biolayer interferometry (BLI) binding
Procedure, shortened: as §1

Sequence of CCL11_HUMAN (P51671 24-97): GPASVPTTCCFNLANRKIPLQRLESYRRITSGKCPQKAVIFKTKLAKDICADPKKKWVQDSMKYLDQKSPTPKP

Molecule | Kd [1] | Kd [2] | Kd [3] | Kd [4]
B1 | 69.6 nM |  |  | 
B2 |  | 22.3 nM | 6.03 nM | 35.4 nM
